Assay results reported in patent US20260328755 (published 2026).
Values belong to the binder of their own block, whether it stands above or below them.

Target: T1, TL1A (TNFSF15) (human, UniProt O95150)
T1 chain: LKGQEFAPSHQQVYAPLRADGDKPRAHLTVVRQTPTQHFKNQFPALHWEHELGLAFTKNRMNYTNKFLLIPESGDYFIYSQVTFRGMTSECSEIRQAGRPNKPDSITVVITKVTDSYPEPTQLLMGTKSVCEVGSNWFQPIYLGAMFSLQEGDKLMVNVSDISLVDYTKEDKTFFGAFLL
Assay: ELISA

EC50: 0.324 nM
B1: heavy chain 512 antibody (S228P, L235E) (antibody)
chain 1: not shown
chain 2: EIVLTQSPGTLSLSPGERATLSCRASSSVSYMYWYQQKPGQAPRPLIYATSNLASGIPDRFSGSGSGTDFTLTISRLEPEDFAVYYCQQWEGNPRTFGGGTKLEIKRTVAAPSVFIFPPSDEQLKSGTASVVCLLNNFYPREAKVQWKVDNALQSGNSQESVTEQDSKDSTYSLSSTLTLSKADYEKHKVYACEVTHQGLSSPVTKSFNRGEC

EC50: 0.252 nM
B2: heavy chain 513 antibody (S228P, F234A, L235A) (antibody)
chain 1: not shown
chain 2: B1 chain 2
